Data taken from article PMC5384220, “Highly selective inhibition of histone demethylases by de novo macrocyclic peptides” (Nature Communications, 2017).

T1: His-KDM4A_(1–359)-Bio (human, UniProt O75164 1-359, biotin on the AviTag (>95% biotinylation))
T1 construct: KDM4A, residues 1-359, cloned into pNIC-Bio3; also called His-KDM4A-Bio; His-KDM4A with biotin; not shown: AviTag, C-terminal, kept
T1 sequence (looked up): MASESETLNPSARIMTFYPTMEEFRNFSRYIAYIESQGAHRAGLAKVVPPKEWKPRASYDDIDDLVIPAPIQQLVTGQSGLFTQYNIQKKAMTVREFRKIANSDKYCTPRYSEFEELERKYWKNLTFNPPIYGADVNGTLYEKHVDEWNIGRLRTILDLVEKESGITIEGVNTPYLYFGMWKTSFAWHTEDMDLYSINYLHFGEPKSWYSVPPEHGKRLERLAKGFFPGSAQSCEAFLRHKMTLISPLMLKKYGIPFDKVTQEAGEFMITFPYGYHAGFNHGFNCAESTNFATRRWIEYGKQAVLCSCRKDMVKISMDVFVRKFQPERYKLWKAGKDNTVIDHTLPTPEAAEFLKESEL

T2: KDM4D (human, UniProt Q6B0I6 1-523)
T2 sequence (looked up): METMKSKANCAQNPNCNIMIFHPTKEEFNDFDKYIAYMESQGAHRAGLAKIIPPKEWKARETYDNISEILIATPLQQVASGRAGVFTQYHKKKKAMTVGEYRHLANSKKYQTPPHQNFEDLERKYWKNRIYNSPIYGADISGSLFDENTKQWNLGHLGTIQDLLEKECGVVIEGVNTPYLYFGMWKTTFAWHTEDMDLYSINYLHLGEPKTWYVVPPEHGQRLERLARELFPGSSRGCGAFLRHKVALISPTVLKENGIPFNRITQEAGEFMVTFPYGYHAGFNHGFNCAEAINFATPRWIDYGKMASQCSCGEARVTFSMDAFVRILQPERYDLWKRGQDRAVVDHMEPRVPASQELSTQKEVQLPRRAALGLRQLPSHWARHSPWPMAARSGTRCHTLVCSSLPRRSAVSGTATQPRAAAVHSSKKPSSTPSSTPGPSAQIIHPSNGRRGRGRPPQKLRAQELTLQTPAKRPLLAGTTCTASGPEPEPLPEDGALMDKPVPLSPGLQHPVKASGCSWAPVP

T3: KDM3A (human, UniProt Q9Y4C1 1-1321)
T3 sequence (looked up): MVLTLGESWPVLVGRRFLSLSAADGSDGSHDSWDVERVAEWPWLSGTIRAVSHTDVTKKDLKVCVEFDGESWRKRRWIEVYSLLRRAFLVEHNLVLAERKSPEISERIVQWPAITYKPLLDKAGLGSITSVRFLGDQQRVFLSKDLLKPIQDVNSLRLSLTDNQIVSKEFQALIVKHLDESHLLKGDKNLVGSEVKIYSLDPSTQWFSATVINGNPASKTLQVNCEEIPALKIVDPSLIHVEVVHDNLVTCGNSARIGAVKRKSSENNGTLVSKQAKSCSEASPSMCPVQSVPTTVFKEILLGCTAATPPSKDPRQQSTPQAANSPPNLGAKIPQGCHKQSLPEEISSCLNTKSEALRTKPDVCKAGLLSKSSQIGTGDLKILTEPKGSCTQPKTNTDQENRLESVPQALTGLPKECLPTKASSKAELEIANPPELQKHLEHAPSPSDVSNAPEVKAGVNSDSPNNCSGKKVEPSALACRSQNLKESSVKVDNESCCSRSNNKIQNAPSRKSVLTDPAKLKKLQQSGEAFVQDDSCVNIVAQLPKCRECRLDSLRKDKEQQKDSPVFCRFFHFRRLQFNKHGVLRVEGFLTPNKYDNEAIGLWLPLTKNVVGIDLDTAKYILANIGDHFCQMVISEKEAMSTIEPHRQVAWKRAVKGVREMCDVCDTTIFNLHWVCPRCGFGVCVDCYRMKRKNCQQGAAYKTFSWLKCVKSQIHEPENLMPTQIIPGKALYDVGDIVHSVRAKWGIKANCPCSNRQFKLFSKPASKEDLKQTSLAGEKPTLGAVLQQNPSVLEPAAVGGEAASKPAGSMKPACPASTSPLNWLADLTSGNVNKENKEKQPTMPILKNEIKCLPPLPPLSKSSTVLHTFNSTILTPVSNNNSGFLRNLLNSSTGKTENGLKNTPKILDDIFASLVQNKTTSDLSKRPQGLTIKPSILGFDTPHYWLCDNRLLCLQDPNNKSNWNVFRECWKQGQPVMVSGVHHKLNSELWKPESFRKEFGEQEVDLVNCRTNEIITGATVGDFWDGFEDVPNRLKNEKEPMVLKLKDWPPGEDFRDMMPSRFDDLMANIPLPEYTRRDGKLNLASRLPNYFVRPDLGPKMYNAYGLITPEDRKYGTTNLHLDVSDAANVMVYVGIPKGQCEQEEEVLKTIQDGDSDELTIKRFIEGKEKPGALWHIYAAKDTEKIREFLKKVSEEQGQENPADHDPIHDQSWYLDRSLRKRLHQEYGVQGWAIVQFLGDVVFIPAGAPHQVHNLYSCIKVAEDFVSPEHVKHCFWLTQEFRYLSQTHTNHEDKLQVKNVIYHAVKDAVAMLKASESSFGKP

T4: KDM2A (human, UniProt Q9Y2K7 1-1162)
T4 sequence (looked up): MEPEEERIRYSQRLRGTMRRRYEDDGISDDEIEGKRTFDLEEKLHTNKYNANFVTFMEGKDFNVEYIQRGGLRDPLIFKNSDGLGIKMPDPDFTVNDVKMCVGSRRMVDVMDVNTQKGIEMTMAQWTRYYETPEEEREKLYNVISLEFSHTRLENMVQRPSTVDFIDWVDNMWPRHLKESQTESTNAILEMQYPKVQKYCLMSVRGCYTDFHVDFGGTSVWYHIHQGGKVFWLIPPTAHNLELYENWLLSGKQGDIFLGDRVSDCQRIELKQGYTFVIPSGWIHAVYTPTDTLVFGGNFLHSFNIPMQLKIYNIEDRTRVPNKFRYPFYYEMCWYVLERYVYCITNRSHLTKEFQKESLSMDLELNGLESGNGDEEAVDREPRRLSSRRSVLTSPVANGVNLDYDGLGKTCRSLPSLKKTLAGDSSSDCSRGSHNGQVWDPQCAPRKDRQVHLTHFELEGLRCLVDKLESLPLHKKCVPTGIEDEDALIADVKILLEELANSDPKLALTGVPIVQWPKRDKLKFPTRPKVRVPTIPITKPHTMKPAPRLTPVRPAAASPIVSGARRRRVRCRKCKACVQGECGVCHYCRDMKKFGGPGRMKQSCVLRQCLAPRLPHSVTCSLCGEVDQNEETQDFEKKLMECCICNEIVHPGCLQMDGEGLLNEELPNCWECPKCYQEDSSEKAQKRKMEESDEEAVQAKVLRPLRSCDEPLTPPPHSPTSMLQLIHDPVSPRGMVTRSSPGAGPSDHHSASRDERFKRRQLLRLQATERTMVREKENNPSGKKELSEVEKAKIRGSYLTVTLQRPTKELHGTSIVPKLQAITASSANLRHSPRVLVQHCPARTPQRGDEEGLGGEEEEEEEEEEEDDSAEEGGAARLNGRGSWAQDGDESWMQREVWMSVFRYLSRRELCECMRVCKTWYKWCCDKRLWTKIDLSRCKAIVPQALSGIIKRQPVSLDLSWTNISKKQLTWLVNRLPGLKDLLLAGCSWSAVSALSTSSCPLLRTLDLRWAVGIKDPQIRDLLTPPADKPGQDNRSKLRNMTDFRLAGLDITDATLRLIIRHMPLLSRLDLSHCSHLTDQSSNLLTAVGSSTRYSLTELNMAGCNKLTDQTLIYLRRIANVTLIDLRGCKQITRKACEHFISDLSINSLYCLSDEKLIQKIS


Legend:
His-KDM4A_(1–359)-Bio = molecular target: T1, His-KDM4A_(1–359)-Bio; assay: BLI; His-KDM4A(1–359)-Bio (70 nM) immobilised on super streptavidin biosensor, peptides at different concentrations in solution; OctetRed 384; 50 mM HEPES pH 7.5, 150 mM NaCl, 10 μM ammonium iron(II) sulphate; settings: both partners purified
KDM4D = molecular target: T2, KDM4D; assay: cell-based or functional assay
KDM1A = KDM1A (human, UniProt O60341 1-852); assay: cell-based or functional assay
KDM3A = molecular target: T3, KDM3A; assay: cell-based or functional assay
KDM2A = molecular target: T4, KDM2A; assay: cell-based or functional assay
KDM6B = KDM6B (human, UniProt O15054 1-1643); assay: cell-based or functional assay
KDM6B, sequence (O15054 whole entry, the tested form may be a part): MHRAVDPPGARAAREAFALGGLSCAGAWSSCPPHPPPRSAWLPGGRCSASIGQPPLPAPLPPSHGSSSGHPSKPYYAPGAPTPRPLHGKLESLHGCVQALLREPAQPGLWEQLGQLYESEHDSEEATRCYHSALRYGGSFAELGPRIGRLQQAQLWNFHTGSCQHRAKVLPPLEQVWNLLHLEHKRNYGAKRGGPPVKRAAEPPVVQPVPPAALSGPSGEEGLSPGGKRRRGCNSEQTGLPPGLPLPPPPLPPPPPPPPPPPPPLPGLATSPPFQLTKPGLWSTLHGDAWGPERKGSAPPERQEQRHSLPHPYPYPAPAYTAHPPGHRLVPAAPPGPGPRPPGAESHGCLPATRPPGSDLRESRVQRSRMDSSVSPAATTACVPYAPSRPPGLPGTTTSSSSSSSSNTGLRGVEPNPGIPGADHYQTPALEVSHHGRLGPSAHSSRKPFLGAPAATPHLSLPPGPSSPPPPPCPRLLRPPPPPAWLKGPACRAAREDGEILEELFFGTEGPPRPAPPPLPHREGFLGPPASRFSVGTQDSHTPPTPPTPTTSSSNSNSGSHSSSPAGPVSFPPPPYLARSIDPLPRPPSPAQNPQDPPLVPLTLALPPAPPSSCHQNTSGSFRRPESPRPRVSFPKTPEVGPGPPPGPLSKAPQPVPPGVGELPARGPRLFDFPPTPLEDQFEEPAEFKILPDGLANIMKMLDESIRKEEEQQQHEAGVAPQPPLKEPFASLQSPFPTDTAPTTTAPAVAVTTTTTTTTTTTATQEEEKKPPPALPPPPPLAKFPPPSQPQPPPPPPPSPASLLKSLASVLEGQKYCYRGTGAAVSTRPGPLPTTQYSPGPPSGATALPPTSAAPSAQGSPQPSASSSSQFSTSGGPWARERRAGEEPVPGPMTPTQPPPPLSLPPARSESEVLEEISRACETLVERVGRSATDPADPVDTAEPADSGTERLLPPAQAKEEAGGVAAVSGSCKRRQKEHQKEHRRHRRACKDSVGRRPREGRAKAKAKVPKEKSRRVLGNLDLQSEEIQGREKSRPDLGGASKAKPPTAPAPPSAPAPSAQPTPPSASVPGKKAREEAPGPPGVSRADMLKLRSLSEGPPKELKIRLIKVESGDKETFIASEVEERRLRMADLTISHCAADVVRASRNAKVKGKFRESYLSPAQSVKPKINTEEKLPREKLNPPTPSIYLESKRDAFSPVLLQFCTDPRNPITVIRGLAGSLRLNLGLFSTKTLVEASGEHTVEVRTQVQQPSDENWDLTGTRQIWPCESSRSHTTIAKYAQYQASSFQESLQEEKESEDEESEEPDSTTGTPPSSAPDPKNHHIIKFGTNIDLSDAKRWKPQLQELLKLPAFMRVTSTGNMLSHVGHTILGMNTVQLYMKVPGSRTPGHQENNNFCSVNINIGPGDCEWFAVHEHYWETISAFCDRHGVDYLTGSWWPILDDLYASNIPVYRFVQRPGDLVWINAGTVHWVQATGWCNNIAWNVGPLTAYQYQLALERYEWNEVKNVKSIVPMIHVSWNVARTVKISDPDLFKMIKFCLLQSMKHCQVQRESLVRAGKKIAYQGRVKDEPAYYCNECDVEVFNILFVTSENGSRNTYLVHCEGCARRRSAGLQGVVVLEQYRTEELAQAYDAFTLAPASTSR

[1] = molecular target: prolyl hydroxylase domain 2 (UniProt Q9GZT9 1-426); assay: cell-based or functional assay
prolyl hydroxylase domain 2, sequence (Q9GZT9 whole entry, the tested form may be a part): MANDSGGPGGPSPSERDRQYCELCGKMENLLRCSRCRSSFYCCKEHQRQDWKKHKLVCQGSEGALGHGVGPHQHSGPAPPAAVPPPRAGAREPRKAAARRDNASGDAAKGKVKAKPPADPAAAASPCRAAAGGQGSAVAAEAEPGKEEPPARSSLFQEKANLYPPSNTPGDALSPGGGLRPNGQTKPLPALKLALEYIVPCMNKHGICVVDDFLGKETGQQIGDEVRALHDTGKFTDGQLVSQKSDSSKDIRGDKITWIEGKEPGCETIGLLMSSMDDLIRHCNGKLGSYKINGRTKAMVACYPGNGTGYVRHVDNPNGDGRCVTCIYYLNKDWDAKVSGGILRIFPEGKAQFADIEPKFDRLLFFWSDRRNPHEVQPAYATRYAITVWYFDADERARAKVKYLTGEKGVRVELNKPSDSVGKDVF

factor inhibiting HIF = factor inhibiting HIF (UniProt Q9NWT6 1-349); assay: cell-based or functional assay
factor inhibiting HIF, sequence (Q9NWT6 whole entry): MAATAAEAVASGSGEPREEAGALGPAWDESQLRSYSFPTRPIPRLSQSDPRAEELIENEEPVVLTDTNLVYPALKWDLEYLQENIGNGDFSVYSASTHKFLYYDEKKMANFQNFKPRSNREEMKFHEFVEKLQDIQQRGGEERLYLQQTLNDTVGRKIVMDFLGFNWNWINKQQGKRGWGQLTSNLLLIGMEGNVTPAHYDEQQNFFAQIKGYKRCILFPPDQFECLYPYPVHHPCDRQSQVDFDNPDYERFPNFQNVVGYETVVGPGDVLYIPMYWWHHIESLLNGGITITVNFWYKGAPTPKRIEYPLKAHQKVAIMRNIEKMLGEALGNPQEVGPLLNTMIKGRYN

KDM5C = KDM5C (human, UniProt P41229 1-1560); assay: cell-based or functional assay
KDM5C, sequence (P41229 whole entry): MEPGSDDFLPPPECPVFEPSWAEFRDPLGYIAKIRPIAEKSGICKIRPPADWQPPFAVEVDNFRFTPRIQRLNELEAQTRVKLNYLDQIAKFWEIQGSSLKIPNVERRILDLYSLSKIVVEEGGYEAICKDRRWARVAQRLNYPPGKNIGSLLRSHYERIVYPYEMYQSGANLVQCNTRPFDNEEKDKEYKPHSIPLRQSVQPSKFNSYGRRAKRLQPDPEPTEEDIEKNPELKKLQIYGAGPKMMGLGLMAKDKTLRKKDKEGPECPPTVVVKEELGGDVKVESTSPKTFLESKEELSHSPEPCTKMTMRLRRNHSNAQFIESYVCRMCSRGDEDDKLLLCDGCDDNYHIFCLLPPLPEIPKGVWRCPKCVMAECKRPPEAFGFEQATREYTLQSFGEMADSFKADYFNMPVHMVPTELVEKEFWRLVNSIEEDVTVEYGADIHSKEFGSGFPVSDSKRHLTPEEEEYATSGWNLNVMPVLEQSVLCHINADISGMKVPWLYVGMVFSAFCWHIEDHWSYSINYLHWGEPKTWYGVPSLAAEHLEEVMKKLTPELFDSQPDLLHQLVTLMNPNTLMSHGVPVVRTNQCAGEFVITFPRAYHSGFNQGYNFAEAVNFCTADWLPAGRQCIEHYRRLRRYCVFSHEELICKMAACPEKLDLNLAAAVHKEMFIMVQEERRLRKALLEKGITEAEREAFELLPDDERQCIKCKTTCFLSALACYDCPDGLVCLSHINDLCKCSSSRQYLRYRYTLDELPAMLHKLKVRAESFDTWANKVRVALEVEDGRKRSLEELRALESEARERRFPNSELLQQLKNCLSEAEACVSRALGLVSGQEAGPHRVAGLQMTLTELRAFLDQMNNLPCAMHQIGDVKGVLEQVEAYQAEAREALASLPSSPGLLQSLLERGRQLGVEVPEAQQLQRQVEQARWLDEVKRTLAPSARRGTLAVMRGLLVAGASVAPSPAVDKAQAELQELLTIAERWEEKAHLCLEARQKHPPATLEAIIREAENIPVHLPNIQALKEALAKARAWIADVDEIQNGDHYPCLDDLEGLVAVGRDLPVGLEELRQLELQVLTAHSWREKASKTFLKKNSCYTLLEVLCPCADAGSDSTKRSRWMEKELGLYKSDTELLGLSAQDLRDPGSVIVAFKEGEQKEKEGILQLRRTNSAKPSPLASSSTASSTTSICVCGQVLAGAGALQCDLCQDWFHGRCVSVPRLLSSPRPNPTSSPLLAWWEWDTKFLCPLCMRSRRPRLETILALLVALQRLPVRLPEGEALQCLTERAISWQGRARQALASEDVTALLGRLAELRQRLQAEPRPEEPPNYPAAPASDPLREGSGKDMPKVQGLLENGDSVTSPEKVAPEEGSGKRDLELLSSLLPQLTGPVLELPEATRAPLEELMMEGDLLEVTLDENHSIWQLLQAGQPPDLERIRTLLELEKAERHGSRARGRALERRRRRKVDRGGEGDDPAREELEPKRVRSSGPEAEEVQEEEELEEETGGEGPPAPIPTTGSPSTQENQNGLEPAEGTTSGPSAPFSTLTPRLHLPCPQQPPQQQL

Binder	fold weaker Kd than the cyclic peptides CP2, CP4 and CP5 (His-KDM4A_(1–359)-Bio) [fold]	IC50 of inhibition of demethylase activity (AlphaScreen activity assay) (KDM4D) [µM]	IC50 of inhibition of KDM1A/LSD1 (fluorescence-based assay) (KDM1A) [µM]	IC50 of inhibition of demethylase activity (AlphaScreen activity assay) (KDM3A) [µM]	IC50 of inhibition of demethylase activity (AlphaScreen activity assay) (KDM2A) [µM]	IC50 of inhibition of demethylase activity (AlphaScreen activity assay) (KDM6B) [µM]	IC50 of inhibition of PHD2 (MALDI–TOF MS assay) [1] [µM]	IC50 of inhibition of FIH (MALDI–TOF MS assay) (factor inhibiting HIF) [µM]	IC50 of inhibition of demethylase activity (AlphaScreen activity assay) (KDM5C) [µM]
ARTKQTARKSTGGKA (peptide, UniProt P68431 2-16, looked up, trimethyl-lysine at 9, histone H3, residues 1-15, Lys9 trimethylated; The H3K9me3 substrate of the formaldehyde dehydrogenase coupled assay is not described further; this molecule is used for it; also called histone H3K9 peptide; H3K9me3) [H3(1–15)K9me3]	> 1000								
YSKYTQSGVRWVC (not fully specified; N-terminal L-Tyr (^LTyr library, N-chloroacetyl-L-Tyr) cyclised by a thioether to a downstream cysteine) [CP5]		> 10	> 10	> 10	> 10	> 10	> 1000	> 1000	> 10
